These are literature values, as cited in article PMC2654521.

pKd, pKi: −log10 of the molar value. Several values for one entry are separate records, joined by “and”; a condition that tells them apart may be missing. Equal values may be shown once. Read-outs that look alike come from different tables or passages of the source.

The target of data set [1] is N-type calcium channel (Rattus norvegicus) (UniProt Q02294). Put plainly: radioligand.
Data set [2] shares this target. Put plainly: radioligand. The source holds these as a separate data set.

Sequence of UniProt Q02294 (Q02294 whole entry): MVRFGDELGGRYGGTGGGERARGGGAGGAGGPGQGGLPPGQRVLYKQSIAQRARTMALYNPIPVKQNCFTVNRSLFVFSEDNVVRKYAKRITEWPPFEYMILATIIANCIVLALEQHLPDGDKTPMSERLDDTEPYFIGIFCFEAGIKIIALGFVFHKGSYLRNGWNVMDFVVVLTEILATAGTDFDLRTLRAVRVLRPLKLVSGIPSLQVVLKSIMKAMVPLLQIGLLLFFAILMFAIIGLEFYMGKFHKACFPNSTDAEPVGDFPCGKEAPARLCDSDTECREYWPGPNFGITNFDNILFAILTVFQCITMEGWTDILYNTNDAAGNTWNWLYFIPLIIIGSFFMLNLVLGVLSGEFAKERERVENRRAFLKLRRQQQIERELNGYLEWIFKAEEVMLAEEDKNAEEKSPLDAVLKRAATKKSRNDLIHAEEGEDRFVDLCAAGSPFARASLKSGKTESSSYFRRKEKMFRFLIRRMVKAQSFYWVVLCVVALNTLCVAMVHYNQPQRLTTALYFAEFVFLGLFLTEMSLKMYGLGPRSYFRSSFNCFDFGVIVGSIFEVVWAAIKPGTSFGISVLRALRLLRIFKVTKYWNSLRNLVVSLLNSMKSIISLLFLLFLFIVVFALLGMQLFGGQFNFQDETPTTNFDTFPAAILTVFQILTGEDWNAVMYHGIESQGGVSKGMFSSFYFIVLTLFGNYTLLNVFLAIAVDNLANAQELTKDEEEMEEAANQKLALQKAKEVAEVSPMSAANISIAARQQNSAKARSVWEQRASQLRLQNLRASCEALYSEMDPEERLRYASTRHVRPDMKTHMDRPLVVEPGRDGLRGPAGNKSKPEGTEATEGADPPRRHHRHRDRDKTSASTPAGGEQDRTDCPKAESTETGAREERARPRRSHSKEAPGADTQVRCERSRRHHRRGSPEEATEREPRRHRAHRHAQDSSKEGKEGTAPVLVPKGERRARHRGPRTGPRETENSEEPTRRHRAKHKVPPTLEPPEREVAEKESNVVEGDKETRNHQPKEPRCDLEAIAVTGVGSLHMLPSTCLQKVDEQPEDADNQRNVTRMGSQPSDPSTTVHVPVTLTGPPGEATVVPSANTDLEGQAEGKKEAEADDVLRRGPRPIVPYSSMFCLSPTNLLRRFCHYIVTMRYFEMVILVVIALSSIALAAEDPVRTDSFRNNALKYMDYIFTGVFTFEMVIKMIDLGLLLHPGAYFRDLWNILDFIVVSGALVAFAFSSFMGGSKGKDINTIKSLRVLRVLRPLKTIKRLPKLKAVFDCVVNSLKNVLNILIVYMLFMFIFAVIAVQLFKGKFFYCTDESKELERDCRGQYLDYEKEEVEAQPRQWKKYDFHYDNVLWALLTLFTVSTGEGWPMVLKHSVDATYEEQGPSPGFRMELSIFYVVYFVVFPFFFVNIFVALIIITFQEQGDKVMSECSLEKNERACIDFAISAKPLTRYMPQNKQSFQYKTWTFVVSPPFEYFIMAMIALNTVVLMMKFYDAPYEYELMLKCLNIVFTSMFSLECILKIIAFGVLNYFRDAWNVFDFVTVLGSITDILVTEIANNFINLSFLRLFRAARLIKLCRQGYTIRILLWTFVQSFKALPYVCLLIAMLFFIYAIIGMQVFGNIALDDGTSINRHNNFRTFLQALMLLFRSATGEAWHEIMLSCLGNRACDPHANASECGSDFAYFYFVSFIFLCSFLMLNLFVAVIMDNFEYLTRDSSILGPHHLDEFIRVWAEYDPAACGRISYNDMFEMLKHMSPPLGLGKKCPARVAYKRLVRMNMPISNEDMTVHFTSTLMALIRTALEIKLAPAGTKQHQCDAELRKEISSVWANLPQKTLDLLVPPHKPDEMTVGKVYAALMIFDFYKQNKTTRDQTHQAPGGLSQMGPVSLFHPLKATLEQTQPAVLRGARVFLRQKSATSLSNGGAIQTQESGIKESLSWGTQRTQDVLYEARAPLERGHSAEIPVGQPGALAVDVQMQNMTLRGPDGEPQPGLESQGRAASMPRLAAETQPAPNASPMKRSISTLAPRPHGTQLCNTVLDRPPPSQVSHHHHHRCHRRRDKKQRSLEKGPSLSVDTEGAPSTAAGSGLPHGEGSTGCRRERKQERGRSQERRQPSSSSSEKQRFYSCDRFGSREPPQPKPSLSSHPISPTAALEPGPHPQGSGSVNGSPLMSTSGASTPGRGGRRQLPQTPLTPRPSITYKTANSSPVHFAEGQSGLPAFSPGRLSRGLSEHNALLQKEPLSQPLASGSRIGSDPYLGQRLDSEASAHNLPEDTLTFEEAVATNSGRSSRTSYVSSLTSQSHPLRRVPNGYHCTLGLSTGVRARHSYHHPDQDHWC

The term pKd denotes −log10 of the Kd, conventionally taken in molar units. A word on the pKi: it is the negative decadic logarithm of the Ki, by convention in mol/L. Take “ziconotide (omega-conotoxin MVIIA) (from UniProt P05484)”: in data set [1], the pKd is 11.96 and 11.05; the pKi was 12.00. Moreover, the pKd in data set [2] was 11.15 and 10.74.
